Measured values from US8722850B2, “Self-assembling peptides and their use in the formation of hydrogels” (Universita' Degli Studi di Milano Bicocca, priority 2010, dated 2014).
“Also recorded” adds a separate entry of the source. Where a SMILES comes first, the peptide text is derived from it. [ ]: non-standard residue; d: D form. The star is where a group is joined. Biotin = O=C1N[C@H]2[C@H](CS[C@H]2CCCCC(=O)*)N1; NHPr = CCCN*

Columns and labels:
[1] = Macro-scale scaffold formation upon exposure to PBS / neutral pH buffer; type: physicochemical; details: upon exposure to PBS (1×) / neutral pH buffer
Description: The tested peptides solutions appearance ranged from peptides giving clear liquid is solutions (e.g. 4, B15, B19, B25, B28, 30) to samples which become opaque in 1 to 7 days after dissolution (e.g. B3, B17, B22, B24, B27, 31) as shown in FIG. 2a (I). Most of the liquid solutions increased in viscosity over the first week after dissolution, however after ten days in water no appreciable changes happened at the macroscale.
(§1) Nonetheless, keeping constant the observation time, the storage moduli of peptide solutions previously dissolved (the day before) at 3% w/v were measured. Measurements were obtained of these peptide solutions, further diluted to 1% w/v at the same day of the experiment (unless otherwise specified), and, after addition of PBS, of the formed scaffolds.

[2] = test system: human Neural Stem Cells (hNSCs); test: CellTiter 96 Aqueous Proliferation Assay of hNSCs on self-assembled scaffolds; type: cell-based; details: 7 DIV, n=6, versus negative control (plastic)
Procedure: Neural precursor cultures are established and expanded as previously described (15, 16). Human neural stem cells (NSCs) were isolated from the central nervous system, in particular from the diencephalon and the cerebral cortex of human brain 10.5 weeks from conception. The modalities for obtaining the primary tissue are in agreement with the guidelines of the European Network for Transplantation (NECTAR).
(§2) In vitro tests were performed following a previously adopted methodology (5). Briefly, cells (at a concentration of 6×10^4 cells/cm^2) were seeded on the top-surface of each assembled scaffold previously assembled into 96 multiwells. Initially, cells were cultured with basal medium supplemented with βFGF (10 ng/ml), added to enhance neuronal progeny differentiation. At 3 days in vitro (DIV), βFGF medium was replaced with Leukemia Inhibitory Factor (LIF, Chemicon) (20 ng/ml) and Brain Derived Neurotrophic Factor (BDNF, Peprotech) (20 ng/ml). Fresh medium was added every three days. Positive and negative controls consisted of CULTREX-BME® substrate (R&D systems) (1:100 dilution in basal medium) and untreated bottom well surfaces respectively.
Cell viability was quantified via […] 96® Aqueous Proliferation Assay (Promega, Madison, Wis.) at 7 DIV as recommended in the Promega protocol. After calibrating the linear response between the cell number and absorbance values, proliferated cell populations were quantified (n=6) by using a Vmax microplate reader (Molecular Devices, Sunnyvale, Calif.) at 490 nm wavelength. Values, reported as means±standard error of the mean, were blanked to their respective controls consisting of same substrates and cell culture media without cells.
(§3) To assess the potential of the proposed SAPs for cell cultures and, more generally, for regenerative medicine, a two-dimensional cell culture protocol already developed for RADA16-I-like peptides was adapted (5). Briefly, human Neural Stem Cells (hNSCs), mechanically dissociated 1 day before plating, were seeded and cultured for one week in vitro over self-assembled scaffolds of B3, 4, B15, B17, B19, B22, B24, B25, B27, B28, 30, 31 and over non-coated tissue culture plastic wells (negative control).

[3] = Self-healing tests of assembled scaffolds after mechanical rupture; type: physicochemical; details: recovery of scaffold stiffness after mechanical rupture
Procedure: (§4) Rheological properties were determined for the peptides of the invention, using a controlled stress TA Instruments AR-2000ex rheometer (TAInstruments). A cone-and-plate geometry (acrylic cone diameter, 20 mm; angle, 1°; truncation gap 34 μm) was used. All measurements were obtained at a constant monitored temperature of 25° C. Preliminary strain sweeps were performed for each sample to define the linear viscoelastic region, thus ensuring that moduli were independent of strain. Time sweeps, after addition of PBS (1×) were recorded at constant angular frequency (ω=1 Hz). Frequency sweeps, both for peptide water solutions and for self-assembled scaffolds, were performed with the instrument in oscillatory mode at controlled strain of 1%. Final: onset point of rupture was calculated by linear interpolation and subsequent determination of the intersection of the G′ modes in the linear region and at material rupture respectively. G′ values were averaged in the 1-100 Hz region and between n=3 independent replicates. During self-healing tests the self-assembled scaffold was torn by applying a strain sweep (0.01%-1000% strain range) at 1 Hz oscillatory frequency. G′ values were is recorded in frequency sweep mode (at 1% strain) or, in time sweep mode (at 1 Hz and at 1% strain), before and after the strain sweep step, subsequent observations were performed every half hour or, in case of time sweep test, every 30 seconds. In all of the SAPs the difference between the storage moduli measured before and after PBS addition spanned from two to four orders of magnitude, proving the dramatic biomechanical changes taking place during scaffold gelation. Peptide B3 (1%) yielded a solid stiff scaffold (G′=2917 Pa), supporting the idea that ionic charges may screen the electrostatic repulsions given by positively charged lysine residues and speed up the spontaneous ongoing self-assembling process, on its turn giving an already viscous (G′=67 Pa) and opaque solution at day 1. Among the peptides giving soft scaffold (100 Pa-1000 Pa range) peptides 4, B19, B25, B28 and 30 were included. On the opposite side, SAPs yielding solid stiff scaffolds are B15, B22, B24, B27 and 31 (5000 Pa-9000 Pa range).
Solid scaffolds were obtained via addition of PBS (1×) in a cone-and-plate rheometer; we measured the storage modulus, the samples were subjected to a strain sweep (0.01% to 1000%) until and far beyond rupture occurred (i.e. is monitoring the sudden drop of G′ value). Samples were then left in place (keeping them hydrated with PBS) and their G′ were measured every 30 minutes via frequency sweep tests in the range of 0.1 Hz to 60 Hz. As a negative control KLD-12, a well-known SAP, was tested (4, 6). […] In FIG. 6b peptide B25 (3% w/v concentration) was assessed for self-healing in a time sweep mode, every 30 seconds, at 1 Hz and at 1% strain. Values of G′ recovered after 100 minutes (1000 Pa) and steadily plateaued over time. For peptides B3, B22, B25 and B27 full recovery was obtained at different time intervals after rupture, ranging from 60′ to 240′. Similar results were confirmed by multiple independent experiments, but at different time ranges, for all of the self-assembling peptides except for B19 and B28.
Samples were checked for rupture by tilting. After a maximum of four hours all of the samples returned to their solidified gel appearance. This healing could be repeated at will.

[4] = Solubility and behaviour on dissolution in water; type: physicochemical
Description: All of the synthesized peptides are soluble at 1% w/v concentration in distilled water and in acid (0.1 M HCl) solutions.

[5] = test system: human Neural Stem Cells (hNSCs); test: Live/Dead cell imaging (calcein AM / ethidium homodimer); type: cell-based; details: cells cultured for 10 days
Procedure: as §2
Live/Dead cell imaging (MolecularProbes) was obtained by incubating cells cultured for 10 days with a staining solution containing 2.0 μM calcein AM and 4.0 μM ethidium homodimer in PBS at 37° C. for 60 min and visualized by inverted fluorescence microscope (Zeiss).

[6] = test system: human Neural Stem Cells (hNSCs); test: Phase contrast imaging of hNSC morphology on scaffolds; type: cell-based; details: 7 days in vitro
Procedure: as §2, §3

[7] = Rheological tests (storage modulus G′, cone-and-plate rheometer); type: physicochemical
Procedure: as §4
The mechanical properties of the synthesized peptides were tested with a cone-and-plate rheometer. Firstly, the G′ dependence of peptide water solutions on concentration increments, and consequently aggregation kinetics, was assessed as shown in FIG. 2b.
as §1

## Ac-WGGGPFSSTKT-CONH2 (Ac-WGGGPFSSTKT-NH2) [peptide 4]
[1]
  solid scaffold / hydrogel formation: yielded solid scaffolds
[2]
  living cell population / hNSC viability (CellTiter assay): comparable to the biotinilated peptides
[3]
  self-healing property: self-healing property has been seen

## Biot-GGGAFSSTKTGRGD-CONH2 (Biotin-GGGAFSSTKTGRGD-NH2; SMILES C[C@H](NC(=O)CNC(=O)CNC(=O)CNC(=O)CCCC[C@@H]1SC[C@@H]2NC(=O)N[C@@H]21)C(=O)N[C@@H](Cc1ccccc1)C(=O)N[C@@H](CO)C(=O)N[C@@H](CO)C(=O)N[C@H](C(=O)N[C@@H](CCCCN)C(=O)N[C@H](C(=O)NCC(=O)N[C@@H](CCCNC(=N)N)C(=O)NCC(=O)N[C@@H](CC(=O)O)C(N)=O)[C@@H](C)O)[C@@H](C)O) [B19]
[1]
  solid scaffold / hydrogel formation: yielded solid scaffolds
[2]
  living cell population / hNSC viability (CellTiter assay): significantly different from negative control

## Biot-GGGPFSSTNT-CONH2 (Biotin-GGGPFSSTNT-NH2; SMILES C[C@@H](O)[C@H](NC(=O)[C@H](CC(N)=O)NC(=O)[C@@H](NC(=O)[C@H](CO)NC(=O)[C@H](CO)NC(=O)[C@H](Cc1ccccc1)NC(=O)[C@@H]1CCCN1C(=O)CNC(=O)CNC(=O)CNC(=O)CCCC[C@@H]1SC[C@@H]2NC(=O)N[C@@H]21)[C@@H](C)O)C(N)=O) [B11]
[4]
  self-assembling on dissolution: immediately self-assembling with dissolution in water

## C[C@@H](O)[C@H](NC(=O)[C@H](CCCNC(=N)N)NC(=O)[C@@H](NC(=O)[C@H](CO)NC(=O)[C@H](CO)NC(=O)[C@H](Cc1ccccc1)NC(=O)[C@@H]1CCCN1C(=O)CNC(=O)CNC(=O)CNC(=O)CCCC[C@@H]1SC[C@@H]2NC(=O)N[C@@H]21)[C@@H](C)O)C(N)=O [B22] (Biotin-GGGPFSSTRT-NH2)
[5]
  live/dead cell imaging: clamped in poorly branched aggregates; also recorded: bipolar cells

## Biot-GGGPFSSTQT-CONH2 (Biotin-GGGPFSSTQT-NH2; SMILES C[C@@H](O)[C@H](NC(=O)[C@H](CCC(N)=O)NC(=O)[C@@H](NC(=O)[C@H](CO)NC(=O)[C@H](CO)NC(=O)[C@H](Cc1ccccc1)NC(=O)[C@@H]1CCCN1C(=O)CNC(=O)CNC(=O)CNC(=O)CCCC[C@@H]1SC[C@@H]2NC(=O)N[C@@H]21)[C@@H](C)O)C(N)=O) [B13]
[4]
  self-assembling on dissolution: immediately self-assembling with dissolution in water

## Biot-GGGPFSSTET-CONH2 (Biotin-GGGPFSSTET-NH2; SMILES C[C@@H](O)[C@H](NC(=O)[C@H](CCC(=O)O)NC(=O)[C@@H](NC(=O)[C@H](CO)NC(=O)[C@H](CO)NC(=O)[C@H](Cc1ccccc1)NC(=O)[C@@H]1CCCN1C(=O)CNC(=O)CNC(=O)CNC(=O)CCCC[C@@H]1SC[C@@H]2NC(=O)N[C@@H]21)[C@@H](C)O)C(N)=O) [B12]
[4]
  self-assembling on dissolution: immediately self-assembling with dissolution in water

## Ac-WGGGAFSSTKT-CONH2 (Ac-WGGGAFSSTKT-NH2) [peptide 31]
[1]
  solid scaffold / hydrogel formation: yielded solid scaffolds
[2]
  living cell population / hNSC viability (CellTiter assay): comparable to the biotinilated peptides
[3]
  self-healing property: self-healing property has been seen
[6]
  cell morphology / degree of spreading: branched cells

## Biot-GGG(Propylamine)FSSTKT-CONH2 (Biotin-GGG[NHPr]FSSTKT-NH2) [peptide B28]
[1]
  solid scaffold / hydrogel formation: yielded solid scaffolds
[7]
  minimum necessary peptide concentration for gelation: 3 % w/v
[2]
  living cell population / hNSC viability (CellTiter assay): cell population comparable to those of the other peptides
[6]
  cell morphology / degree of spreading: proliferated cell clusters

## Biot-GGGAFSSTKT-CONH2 (Biotin-GGGAFSSTKT-NH2; SMILES C[C@H](NC(=O)CNC(=O)CNC(=O)CNC(=O)CCCC[C@@H]1SC[C@@H]2NC(=O)N[C@@H]21)C(=O)N[C@@H](Cc1ccccc1)C(=O)N[C@@H](CO)C(=O)N[C@@H](CO)C(=O)N[C@H](C(=O)N[C@@H](CCCCN)C(=O)N[C@H](C(N)=O)[C@@H](C)O)[C@@H](C)O) [B15]
[1]
  solid scaffold / hydrogel formation: yielded solid scaffolds
[7]; after PBS (1×) addition, averaged in 1-100 Hz range, 25° C., B3 at 1%
  storage modulus G′ of assembled scaffold (G′ post-assembling): 8500 Pa
[2]
  living cell population / hNSC viability (CellTiter assay): biggest living cell populations, significantly different from negative control
[3]
  self-healing property: self-healing property has been seen
[6]
  cell morphology / degree of spreading: branched cells

## Biot-GGGPFSSTDT-CONH2 (Biotin-GGGPFSSTDT-NH2; SMILES C[C@@H](O)[C@H](NC(=O)[C@H](CC(=O)O)NC(=O)[C@@H](NC(=O)[C@H](CO)NC(=O)[C@H](CO)NC(=O)[C@H](Cc1ccccc1)NC(=O)[C@@H]1CCCN1C(=O)CNC(=O)CNC(=O)CNC(=O)CCCC[C@@H]1SC[C@@H]2NC(=O)N[C@@H]21)[C@@H](C)O)C(N)=O) [B10]
[4]
  self-assembling on dissolution: immediately self-assembling with dissolution in water
